In general, Kd refers to a measure of binding affinity in units of concentration.

Data on two molecules can be found in PMC10123100, “Single-molecule visualization of stalled replication-fork rescue by the Escherichia coli Rep helicase”.

For data set [1], the target named is T1, Rep WT (Escherichia coli, UniProt P09980 1-673). In words: SPR; no nucleotide, 5 mM Mg2+; kon 1.22e7 M-1 s-1, koff 5.91e-3 s-1; SPR: 25 mM Tris-HCl pH 7.6, 50 mM NaCl, 5 mM MgCl2, 0.25 mM DTT, 0.2 mM EDTA, 0.005% P20, 20 C; single-molecule: 25 mM Tris-HCl pH 7.9, 10 mM Mg acetate, 50 mM. The note with it: protein: recombinant; chain copies: 2; single strand. (Surface plasmon resonance follows binding to a sensor surface in real time, without labels.)

In data set [2] the target is Rep K28A (Escherichia coli, UniProt P09980 1-673, K28A). In words: SPR; 200 uM ATP, dissociation not stimulated; SPR: 25 mM Tris-HCl pH 7.6, 50 mM NaCl, 5 mM MgCl2, 0.25 mM DTT, 0.2 mM EDTA, 0.005% P20, 20 C; single-molecule: 25 mM Tris-HCl pH 7.9, 10 mM Mg acetate, 50 mM. The note with it: protein: recombinant; tags: His6; chain copies: 2; single strand.
In data set [3] the target is T1, Rep WT. Briefly: SPR; no nucleotide, 5 mM Mg2+; 20 nM Rep; kon 1.03e6 M-1 s-1, koff 2.15e-4 s-1; SPR: 25 mM Tris-HCl pH 7.6, 50 mM NaCl, 5 mM MgCl2, 0.25 mM DTT, 0.2 mM EDTA, 0.005% P20, 20 C; single-molecule: 25 mM Tris-HCl pH 7.9, 10 mM Mg acetate, 50 mM. The following applies: protein: recombinant; chain copies: 2; single strand.

Consider TTTTTTTTTTTTTTT (ssDNA, 3'-biotin) [3'-bio-dT15], for which, in data set [1], the Kd was determined as 0.5 nM. In the case of TTTTTTTTTTTTTTTTTTTTTTTTTTTTTTTTTTT (ssDNA, 3'-biotin) [3'-bio-dT35], the binding result in data set [2] is recorded as “binds”. The dissociation constant (Kd) in data set [3] turned out to be 0.2 nM.
